Data published in the supplement of paper PMC10065799, “High-throughput profiling of sequence recognition by tyrosine kinases and SH2 domains using bacterial peptide display” (eLife, 2023).

Tests used:
Fes = Fes (UniProt P07332); assay: phosphorylation enrichment, bacterial display (enrichment ratio); higher = better substrate or ligand; peptides without Tyr show the background
c-Abl (mouse) = assay: as above
FGFR3 = FGFR3 (UniProt P22607); assay: as above
MERTK = MERTK (UniProt Q12866); assay: as above
MERTK, sequence (Q12866 whole entry, looked up): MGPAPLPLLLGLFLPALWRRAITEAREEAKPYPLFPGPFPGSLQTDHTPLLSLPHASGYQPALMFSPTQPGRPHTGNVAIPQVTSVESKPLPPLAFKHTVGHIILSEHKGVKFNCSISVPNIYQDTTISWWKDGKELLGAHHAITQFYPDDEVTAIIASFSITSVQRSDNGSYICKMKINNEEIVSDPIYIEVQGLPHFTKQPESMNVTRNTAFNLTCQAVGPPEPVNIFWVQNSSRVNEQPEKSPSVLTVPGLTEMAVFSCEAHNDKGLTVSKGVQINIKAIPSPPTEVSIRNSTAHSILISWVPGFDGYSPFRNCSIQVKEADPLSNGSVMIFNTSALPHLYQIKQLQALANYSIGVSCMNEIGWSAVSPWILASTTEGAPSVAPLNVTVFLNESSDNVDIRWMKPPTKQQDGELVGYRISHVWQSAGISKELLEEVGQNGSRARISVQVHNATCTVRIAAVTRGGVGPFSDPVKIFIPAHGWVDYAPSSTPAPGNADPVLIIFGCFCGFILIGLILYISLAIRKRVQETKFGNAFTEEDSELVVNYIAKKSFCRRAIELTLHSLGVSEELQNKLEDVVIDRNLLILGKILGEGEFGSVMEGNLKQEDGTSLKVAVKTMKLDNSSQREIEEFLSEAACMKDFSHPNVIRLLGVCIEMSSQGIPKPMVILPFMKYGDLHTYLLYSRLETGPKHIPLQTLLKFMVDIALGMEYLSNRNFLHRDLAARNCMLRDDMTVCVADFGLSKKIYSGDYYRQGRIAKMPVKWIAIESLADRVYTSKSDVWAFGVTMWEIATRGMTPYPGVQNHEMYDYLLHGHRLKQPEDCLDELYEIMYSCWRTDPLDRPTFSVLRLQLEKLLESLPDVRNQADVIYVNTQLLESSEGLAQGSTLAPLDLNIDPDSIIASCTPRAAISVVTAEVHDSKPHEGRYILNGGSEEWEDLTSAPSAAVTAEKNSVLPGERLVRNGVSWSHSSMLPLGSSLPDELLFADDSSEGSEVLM

AncSZ = assay: as above
Fer (mouse) = assay: as above
Fyn = Fyn (UniProt P06241); assay: as above
EPHB2 = EPHB2 (UniProt P29323); assay: as above
EPHB2, sequence (P29323 whole entry, looked up): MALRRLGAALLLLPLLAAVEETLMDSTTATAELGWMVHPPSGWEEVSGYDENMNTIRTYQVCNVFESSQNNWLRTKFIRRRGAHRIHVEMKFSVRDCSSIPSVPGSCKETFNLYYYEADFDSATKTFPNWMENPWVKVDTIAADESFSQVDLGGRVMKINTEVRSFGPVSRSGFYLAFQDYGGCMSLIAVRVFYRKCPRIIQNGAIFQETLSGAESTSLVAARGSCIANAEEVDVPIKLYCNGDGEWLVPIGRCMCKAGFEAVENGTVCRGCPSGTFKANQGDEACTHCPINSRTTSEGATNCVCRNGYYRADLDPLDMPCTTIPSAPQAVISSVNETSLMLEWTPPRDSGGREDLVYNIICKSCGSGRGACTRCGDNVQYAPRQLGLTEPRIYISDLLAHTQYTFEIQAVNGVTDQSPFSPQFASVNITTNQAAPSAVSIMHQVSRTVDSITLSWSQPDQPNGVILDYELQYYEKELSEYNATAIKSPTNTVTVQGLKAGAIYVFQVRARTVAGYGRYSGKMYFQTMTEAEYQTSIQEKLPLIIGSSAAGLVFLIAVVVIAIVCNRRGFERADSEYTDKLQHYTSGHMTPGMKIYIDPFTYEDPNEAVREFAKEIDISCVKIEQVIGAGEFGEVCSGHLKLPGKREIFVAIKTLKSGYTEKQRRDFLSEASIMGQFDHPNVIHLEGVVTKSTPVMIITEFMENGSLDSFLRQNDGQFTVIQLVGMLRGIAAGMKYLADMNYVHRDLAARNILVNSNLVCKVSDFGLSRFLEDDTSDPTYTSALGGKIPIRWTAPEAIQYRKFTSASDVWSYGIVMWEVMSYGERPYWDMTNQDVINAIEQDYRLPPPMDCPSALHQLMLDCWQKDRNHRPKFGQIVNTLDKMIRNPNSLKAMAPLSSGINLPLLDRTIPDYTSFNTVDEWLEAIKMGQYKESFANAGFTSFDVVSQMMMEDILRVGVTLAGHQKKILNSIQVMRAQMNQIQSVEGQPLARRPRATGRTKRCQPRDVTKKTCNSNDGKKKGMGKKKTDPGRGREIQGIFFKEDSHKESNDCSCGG

Hck = Hck (UniProt P08631); assay: as above
Hck, sequence (P08631 whole entry, looked up): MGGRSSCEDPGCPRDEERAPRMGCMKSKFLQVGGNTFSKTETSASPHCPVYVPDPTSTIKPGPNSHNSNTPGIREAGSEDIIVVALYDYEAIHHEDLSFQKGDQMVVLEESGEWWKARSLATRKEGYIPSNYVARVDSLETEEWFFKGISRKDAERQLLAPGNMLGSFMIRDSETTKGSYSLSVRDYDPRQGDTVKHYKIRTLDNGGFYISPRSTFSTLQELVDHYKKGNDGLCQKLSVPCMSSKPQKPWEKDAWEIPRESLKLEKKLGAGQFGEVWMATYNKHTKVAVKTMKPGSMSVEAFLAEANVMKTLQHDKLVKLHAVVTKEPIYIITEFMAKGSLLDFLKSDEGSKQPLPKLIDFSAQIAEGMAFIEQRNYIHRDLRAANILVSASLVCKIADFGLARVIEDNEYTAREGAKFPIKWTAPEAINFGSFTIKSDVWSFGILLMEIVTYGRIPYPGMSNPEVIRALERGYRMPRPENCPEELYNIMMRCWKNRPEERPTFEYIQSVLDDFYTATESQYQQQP

EPHB1 = EPHB1 (UniProt P54762); assay: as above
EPHB1, sequence (P54762 whole entry, looked up): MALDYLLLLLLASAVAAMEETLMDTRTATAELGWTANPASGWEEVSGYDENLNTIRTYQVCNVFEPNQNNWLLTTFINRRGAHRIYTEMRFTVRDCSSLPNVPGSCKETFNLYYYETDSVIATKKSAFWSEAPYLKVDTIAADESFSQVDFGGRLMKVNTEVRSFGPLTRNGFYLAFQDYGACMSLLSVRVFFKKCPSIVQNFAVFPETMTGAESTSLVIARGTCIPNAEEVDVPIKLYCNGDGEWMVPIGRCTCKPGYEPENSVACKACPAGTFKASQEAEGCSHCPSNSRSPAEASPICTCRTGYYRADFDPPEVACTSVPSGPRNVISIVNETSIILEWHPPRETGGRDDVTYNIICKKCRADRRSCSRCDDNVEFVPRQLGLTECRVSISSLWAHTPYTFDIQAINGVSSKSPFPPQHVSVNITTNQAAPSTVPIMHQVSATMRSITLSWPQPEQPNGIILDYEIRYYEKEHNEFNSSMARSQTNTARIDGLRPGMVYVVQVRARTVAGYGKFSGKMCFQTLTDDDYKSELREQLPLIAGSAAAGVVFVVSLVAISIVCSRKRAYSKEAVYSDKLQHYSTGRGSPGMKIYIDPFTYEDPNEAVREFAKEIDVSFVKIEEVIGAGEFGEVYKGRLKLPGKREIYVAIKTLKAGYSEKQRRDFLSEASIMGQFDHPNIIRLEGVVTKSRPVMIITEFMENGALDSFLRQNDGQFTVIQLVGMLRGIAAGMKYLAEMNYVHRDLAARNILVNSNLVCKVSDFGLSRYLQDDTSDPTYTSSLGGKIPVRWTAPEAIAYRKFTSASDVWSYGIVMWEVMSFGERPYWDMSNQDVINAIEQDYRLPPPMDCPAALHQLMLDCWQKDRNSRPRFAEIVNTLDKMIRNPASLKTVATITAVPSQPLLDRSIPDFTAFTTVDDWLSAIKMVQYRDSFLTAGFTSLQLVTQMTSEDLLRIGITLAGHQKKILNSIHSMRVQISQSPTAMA

Jak2 = Jak2 (UniProt O60674); assay: as above
FGFR1 = FGFR1 (UniProt P11362); assay: as above
FGFR1, sequence (P11362 whole entry, looked up): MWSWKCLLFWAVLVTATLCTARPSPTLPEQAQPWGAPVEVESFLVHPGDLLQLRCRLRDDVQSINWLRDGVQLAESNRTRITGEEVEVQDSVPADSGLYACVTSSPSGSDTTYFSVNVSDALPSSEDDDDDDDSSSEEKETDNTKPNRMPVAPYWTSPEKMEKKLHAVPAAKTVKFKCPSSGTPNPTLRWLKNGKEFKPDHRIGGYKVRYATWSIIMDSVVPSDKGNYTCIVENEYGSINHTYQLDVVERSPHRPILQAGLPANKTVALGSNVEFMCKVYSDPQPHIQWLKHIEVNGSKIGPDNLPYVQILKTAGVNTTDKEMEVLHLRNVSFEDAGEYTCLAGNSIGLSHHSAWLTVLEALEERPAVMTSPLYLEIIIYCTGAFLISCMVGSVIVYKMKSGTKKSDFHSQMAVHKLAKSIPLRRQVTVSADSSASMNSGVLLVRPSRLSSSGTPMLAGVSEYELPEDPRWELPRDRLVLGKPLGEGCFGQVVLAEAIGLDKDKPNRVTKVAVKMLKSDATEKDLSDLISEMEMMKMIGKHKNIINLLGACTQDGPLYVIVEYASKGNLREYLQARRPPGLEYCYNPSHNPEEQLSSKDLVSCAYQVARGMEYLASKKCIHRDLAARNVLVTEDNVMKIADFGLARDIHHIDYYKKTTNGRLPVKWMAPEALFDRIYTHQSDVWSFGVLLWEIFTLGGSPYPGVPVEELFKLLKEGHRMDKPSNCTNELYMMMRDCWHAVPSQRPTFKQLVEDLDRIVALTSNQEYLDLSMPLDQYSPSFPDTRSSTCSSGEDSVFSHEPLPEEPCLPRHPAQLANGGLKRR

c-Src = assay: as above
c-Src SH2 = assay: SH2 binding enrichment of the phosphorylated peptide, bacterial display (enrichment ratio); higher = better substrate or ligand; peptides without Tyr show the background
SHP2-C SH2 = assay: as above
Grb2 SH2 = Grb2 SH2 (UniProt P62993); assay: as above
Grb2 SH2, sequence (P62993 whole entry, looked up, the tested form may be a part): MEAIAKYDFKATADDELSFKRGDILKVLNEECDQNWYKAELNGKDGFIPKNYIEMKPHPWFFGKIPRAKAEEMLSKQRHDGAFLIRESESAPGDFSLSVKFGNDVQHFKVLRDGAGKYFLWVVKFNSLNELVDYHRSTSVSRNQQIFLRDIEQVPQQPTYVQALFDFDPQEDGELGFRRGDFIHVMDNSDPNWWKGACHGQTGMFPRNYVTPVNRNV
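For SH2 binding enrichment of the phosphorylated peptide, bacterial display in this document: peptide library displayed on the E. coli surface as eCPX fusions, selected cells deep-sequenced, score is each peptide's frequency after selection divided by its frequency in the input.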
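For phosphorylation enrichment, bacterial display in this document: 11-residue human phosphosite peptides and single-mutation variants displayed on the E. coli surface, counted by deep sequencing, each peptide's frequency after selection divided by its frequency in the unselected input library; frequency after pTyr selection over input frequency; kinase dosed for 20-30% of maximal phosphorylation in three min.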

Sequence	phosphorylation enrichment (Fes)	phosphorylation enrichment (c-Abl (mouse))	phosphorylation enrichment (FGFR3)	phosphorylation enrichment (MERTK)	phosphorylation enrichment (AncSZ)	phosphorylation enrichment (Fer (mouse))	phosphorylation enrichment (Fyn)	phosphorylation enrichment (EPHB2)	phosphorylation enrichment (Hck)	phosphorylation enrichment (EPHB1)	phosphorylation enrichment (Jak2)	phosphorylation enrichment (FGFR1)	phosphorylation enrichment (c-Src)	SH2 binding enrichment (c-Src SH2)	SH2 binding enrichment (SHP2-C SH2)	SH2 binding enrichment (Grb2 SH2)
KTAFSYTSSST [SIM1_Y356_P352T]	0.721	0.456	0.475	0.44	0.665	0.399	0.41	0.482	0.353	0.329	0.497	0.426	0.432	0.537	0.717	0.87
KTEMLYHLTAR [XRCC2_Y59]	0.982	0.897	0.858	2.06	1.09	0.419	0.73	0.541	0.977	0.53	0.928	0.821	0.965	0.676	0.773	0.903
KVALPYKPYFY [POLE_Y100]	0.963	0.681	0.658	0.556	0.778	0.346	0.465	0.438	0.485	0.589	0.962	0.47	0.858	0.966	1.17	1.25
KVASVYEALGF [NT5C_Y65_P68L]	0.989	0.697	0.574	7.59	0.88	4.62	10.3	4.25	8.84	8.22	0.595	0.607	6.25	0.613	0.667	0.787
KVPAIYGVDTR [CPS1_Y162]	0.665	0.525	0.469	0.54	0.61	0.422	0.642	0.383	0.701	0.334	0.615	0.398	0.782	0.466	0.707	0.841
KWHREYNFKFV [RICTOR_Y835_S837F_YF]	0.944	0.729	0.585	0.436	0.859	0.622	0.372	0.531	0.432	0.488	0.937	0.474	0.429	1.25	1.77	1.27
KYGTNYRVGSS [CPO_Y278]	0.549	0.466	0.362	0.377	0.438	0.308	0.416	0.388	0.415	0.307	0.403	0.338	0.389	0.835	1.23	1.01
LADMNYVHRDL [EPHB2_Y742]	1.6	0.923	0.801	0.796	1.51	0.933	0.481	0.565	0.916	0.762	0.916	0.714	0.721	0.305	0.667	0.676
LAIEGYVVVCK [RHO_Y136_R135G]	1.41	0.991	1.02	0.528	1.5	0.459	0.604	0.826	0.747	0.75	1.09	0.707	0.526	0.525	0.634	0.818
LARDMCDKEYY [MET_Y1230_Y1230C]	1.89	1.06	0.828	0.84	1.64	0.897	0.902	1.01	0.834	0.853	2.02	0.995	0.849	0.952	0.593	0.714
LAVVDYMRRQK [ATM_Y1915]	0.655	0.604	0.437	0.513	0.674	0.374	0.413	0.337	0.453	0.285	0.605	0.373	0.553	0.531	0.652	0.675
LCRFGYANTSE [SI_Y1233_YF]	0.893	0.625	0.581	0.423	0.756	0.381	0.419	0.529	0.422	0.454	0.706	0.455	0.405	0.877	0.881	1.47
LDFNEYFRFLN [HPRT1_Y198_D201Y_YF]	1.29	1.6	2.1	0.573	2.34	0.562	2.25	0.924	1.08	0.592	6.54	2.7	3.62	0.719	1.2	1.49
LDFNEYFRNLN [HPRT1_Y198_D201N_YF]	2.65	1.24	1.6	1.02	2.42	1.35	1	1.13	0.979	0.988	3.21	1.2	0.585	0.617	0.37	0.693
LDLSFYHTSSS [EMD_Y182_P183H_YF]	1.19	0.644	0.903	0.414	1.21	0.423	0.553	0.676	0.575	0.845	1.04	0.575	0.879	0.773	0.701	1
LDLSFYTTSSS [EMD_Y182_P183T_YF]	2.65	2.47	1.53	0.897	2.23	0.882	0.93	1.29	0.999	1.04	2.49	1.12	0.785	0.595	0.657	0.945
LDLSYYTTSSS [EMD_Y182_P183T]	1.36	0.982	1.21	0.731	1.84	0.635	0.967	0.863	1.01	0.978	1.93	1.07	0.908	1.49	0.64	0.73

Sequence	phosphorylation enrichment (Fes)	phosphorylation enrichment (c-Abl (mouse))	phosphorylation enrichment (FGFR3)	phosphorylation enrichment (MERTK)	phosphorylation enrichment (AncSZ)	phosphorylation enrichment (Fer (mouse))	phosphorylation enrichment (Fyn)	phosphorylation enrichment (EPHB2)	phosphorylation enrichment (Hck)	phosphorylation enrichment (EPHB1)	phosphorylation enrichment (Jak2)	phosphorylation enrichment (FGFR1)	phosphorylation enrichment (c-Src)	SH2 binding enrichment (c-Src SH2)	SH2 binding enrichment (SHP2-C SH2)	SH2 binding enrichment (Grb2 SH2)
LDPDSYNMFEN [FOXC1_Y159]	1.14	0.74	0.855	0.635	1.38	0.527	0.531	0.865	0.465	0.637	1.44	0.675	0.579	0.575	0.504	0.667
LENQTYFRSFE [AKAP9_Y2482_K2484R]	1.14	0.843	1.02	0.537	0.881	0.632	0.851	0.811	0.678	0.487	1.09	0.571	0.55	0.624	0.546	0.803
LEPGIYIPEDD [XPNPEP3_Y455_I450L]	1.5	0.974	1.22	0.653	1.58	0.709	0.705	0.717	0.558	0.716	1.24	0.556	0.518	0.456	0.455	0.881
LEQRPYRRESE [KCNJ12_Y427]	1.01	0.519	0.666	0.618	0.746	0.367	0.91	0.643	0.52	0.591	0.461	0.333	0.385	0.267	0.945	0.621
LEYAKYGSLRG [RET_Y809_V804L]	0.765	1.73	0.618	0.687	0.63	2.26	1.87	2.96	2.57	3.25	0.55	0.651	2.49	0.529	0.785	0.619
LFSNAYLSDLA [ALDH1A1_Y119_N121S_YF]	2.92	2.14	1.42	1.81	2.21	1.31	1.23	1.15	0.974	2.12	2.06	2.39	2.79	0.36	0.601	0.783
LGPDGYSTVDQ [ARVCF_Y901_R906Q]	2.87	1.31	1.21	0.707	1.63	0.833	0.982	1.22	0.9	0.876	1.72	1.04	0.848	36	1.77	1.21
LGQGKYSEVFE [CSNK2A1_Y50_R47Q]	1	0.709	0.591	0.535	1.05	0.455	0.489	0.552	0.477	0.508	0.857	0.51	0.574	3.54	0.829	0.95
LGQRIYQFIQS [DYRK1B_Y271_YF]	1.26	1.3	1.5	8.85	0.916	10.1	2.42	5.42	4.98	11.7	0.725	2.23	4.15	2.23	1.33	1.02
LHAALYERKLL [TTLL5_Y542]	1.91	0.934	1.13	0.544	1.43	0.63	1.12	0.798	0.772	1.27	1.04	0.896	0.479	0.622	0.835	0.621
LHNLSYQLEAE [PKP2_Y616]	1.45	1.36	0.934	0.517	1.12	0.605	0.393	0.615	0.699	0.81	1.37	0.483	0.646	0.425	0.512	0.917
LIGWRYDDPEV [HSPA9_Y128_R126W]	1.24	0.652	0.607	0.451	0.984	0.416	0.538	0.859	0.471	0.544	1.17	0.419	0.43	3.68	1	1.01
LILENYGADID [DNAH5_Y596]	1.4	0.841	1.32	0.574	1.84	0.809	0.883	0.856	0.889	1.11	1.25	0.935	0.56	0.669	0.685	0.939
LKGQVYILGQE [ASS1_Y359_R363Q]	2.47	1.77	1.26	0.843	1.84	0.802	0.816	0.848	1.07	1.09	1.98	0.939	1.28	0.539	0.761	1.17
LKRCQYVTKKV [ALDOA_Y204_E207K]	0.821	0.605	0.548	0.535	1	0.582	0.806	0.506	0.371	0.432	0.752	0.807	0.545	0.788	1.02	0.946
LLIVEYAKFGS [RET_Y806_YF]	1.83	1.67	1.36	0.585	1.79	1.16	1.4	1.72	1.25	5.93	1.6	0.909	1.13	1.05	1.29	1.14
